Where two headings read alike, the source gives them in different places.

Holding throughout (details): remark: other sources report otherwise
For assay [1], the target named is T1, sCoV2-RBD (Fc-tagged RBD of SARS-CoV-2 S protein) (SARS-CoV-2; human), P0DTC2.
Assay [2] addresses T1, sCoV2-RBD (Fc-tagged RBD of SARS-CoV-2 …). Put plainly: ELISA titration on coated sCoV2-RBD. (In general: In an ELISA, binding on a coated surface is turned into a signal by an enzyme label.)
The target of assay [3] is trimeric prefusion S protein of SARS-CoV-2 (SARS-CoV-2), P0DTC2.
For assay [4], the target named is T1, sCoV2-RBD (Fc-tagged RBD of SARS-CoV-2 …). Put plainly: BLI (Octet) blocking of ACE2 binding to captured sCoV2-RBD. Background: Biolayer interferometry detects binding as a change in optical thickness at a sensor tip.
Assay [5] has the same target. The source holds these as a separate data set.

B1: CoV2-14 (antibody, V domains shown)
VH: EVQLQQSGPGLVKPSQTLSLTCAISGDSVSSNSAAWNWIRQSPSRGLEWLGRTYYRSKWYNDYAVSVKSRITINPDTSKNQFSLQLNSVTPEDTAVYYCAREEQQLVHDYYYYGMDVWGQGTMVTVSS
VL: QAVVTQPASVSGSPGQSITISCTGTSSDIGAYNYISWYQQHPGKAPKLIIYEVSNRPSGISYRFSGSKSGNTASLTISGLQAEDEANYYCSSYAGSISFGGGTKVTVL
As usually defined, the EC50 (read off the curve) is the concentration at which the effect is half-maximal. High values mean a need for much substance, low ones an effect from little substance. By EC50 is commonly meant the concentration at which the effect is half-maximal. Higher therefore signals weaker potency. For orientation: Kd means the concentration at which binding is half-saturated. Low readings indicate higher affinity, high ones lower affinity. In general, IC50 refers to the midpoint of a concentration-inhibition curve. A low value points to inhibition by little substance. For B1, the half-maximal effective concentration (EC50 (read off the curve)) in assay [1] worked out at 0.5 nM. Further, the EC50 in assay [2] and in assay [5] was 0.58 nM each time. The molecule also showed a Kd in assay [3] of 0.22 nM. The same molecule gave an IC50 in assay [4] of 3.14 µg/mL.
